The target of test [1] is T1, soluble B7H4.
T1 chain: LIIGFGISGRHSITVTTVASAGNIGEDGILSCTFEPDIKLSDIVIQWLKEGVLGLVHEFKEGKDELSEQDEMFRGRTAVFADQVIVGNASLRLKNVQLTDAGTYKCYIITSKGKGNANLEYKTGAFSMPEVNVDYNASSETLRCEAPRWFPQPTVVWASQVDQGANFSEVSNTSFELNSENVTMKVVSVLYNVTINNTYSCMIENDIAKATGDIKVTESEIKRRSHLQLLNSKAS
Kind of test: SPR; experiment #1, 20 nM B7-H4. A general note: In SPR one partner is held on a chip, and binding of the other changes the refractive index at the surface.

For test [2], the target named is T1, soluble B7H4. Briefly: SPR; experiment #2, 25 nM B7-H4.

B1: anti-B7-H4 antibody 801 (antibody, V domains shown)
VH: EVQLVESGGGLVQPGGSLRLSCAASGFTFNSYAMHWVRQAPGKGLEWVSAISGNGGSTRYADSVKGRFTISRDNSKNTLYLQMNSLRAEDTAVYYCARDRFRKVHGFDVWGQGTLVTVSS
VL: DIQMTQSPSSLSASVGDRVTITCQASQDISNYLNWYQQKPGKAPKLLIYDASNLETGVPSRFSGSGSGTDFTFTISSLQPEDIATYYCQQDATFPLTFGQGTKVEIK
Usually Kd stands for the concentration at which binding is half-saturated. On to B1, for which the Kd in the test with soluble B7H4 [1] was found to be 0.175 nM; in the test with soluble B7H4 [2], 0.383 nM.

B2: anti-B7-H4 antibody 817 (antibody, V domains shown)
VH: EVQLVESGGGLVQPGGSLRLSCAASGFTFSSYAMHWVRQAPGKGLEWVSAISGSGGSTRYADSVKGRFTISRDNSKNTLYLQMNSLRAEDTAVYYCARGRWSKWGFDVWGQGTLVTVSS
VL: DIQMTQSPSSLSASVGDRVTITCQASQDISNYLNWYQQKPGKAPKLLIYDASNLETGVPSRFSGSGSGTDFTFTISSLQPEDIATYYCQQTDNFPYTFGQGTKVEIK
For B2, the dissociation constant Kd with soluble B7H4 [1] is 0.079 nM; with soluble B7H4 [2], 0.119 nM.

The record behind these values is patent US11672873 (dated 2023).
